# According to patent publication US9879094B2, “Nucleic acid molecules encoding for BACE1 antibodies” (Genentech, Inc., priority 2010, dated 2018):
# “And” between values parts separate entries of the source, which are not always exact repeats. Equal values may be shown once.
# T1: BACE2 (Homo sapiens, UniProt Q9Y5Z0)
# T1 sequence (Q9Y5Z0 63-518): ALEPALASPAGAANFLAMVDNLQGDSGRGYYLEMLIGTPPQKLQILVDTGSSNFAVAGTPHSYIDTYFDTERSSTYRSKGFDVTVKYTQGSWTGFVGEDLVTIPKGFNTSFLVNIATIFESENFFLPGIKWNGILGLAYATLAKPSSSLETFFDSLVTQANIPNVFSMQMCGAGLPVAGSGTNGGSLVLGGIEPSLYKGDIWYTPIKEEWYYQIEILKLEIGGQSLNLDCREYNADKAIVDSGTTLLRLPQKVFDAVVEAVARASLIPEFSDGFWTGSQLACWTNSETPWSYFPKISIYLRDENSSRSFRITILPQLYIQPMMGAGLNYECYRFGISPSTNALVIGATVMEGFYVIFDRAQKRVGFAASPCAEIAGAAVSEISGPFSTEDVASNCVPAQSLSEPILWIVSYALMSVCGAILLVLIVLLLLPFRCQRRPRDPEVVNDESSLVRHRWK
# How the values were obtained:
# BACE2 = target: T1, BACE2; experiment: SPR analysis, BACE2; format: binding
# Description: Further characterization of this antibody was performed to better understand its function.
# murine BACE1 ECD = target: T2, murine BACE1 ECD (Mus musculus, UniProt P56818); experiment: BIAcore SPR binding kinetics, mouse BACE1; conditions: mouse BACE1, pH 7.0, 25° C.
# T2 construct: human BACE1 ECD or murine BACE1 ECD (amino acids 1-457) was injected in PBT buffer
# T2 sequence (P56818 22-457): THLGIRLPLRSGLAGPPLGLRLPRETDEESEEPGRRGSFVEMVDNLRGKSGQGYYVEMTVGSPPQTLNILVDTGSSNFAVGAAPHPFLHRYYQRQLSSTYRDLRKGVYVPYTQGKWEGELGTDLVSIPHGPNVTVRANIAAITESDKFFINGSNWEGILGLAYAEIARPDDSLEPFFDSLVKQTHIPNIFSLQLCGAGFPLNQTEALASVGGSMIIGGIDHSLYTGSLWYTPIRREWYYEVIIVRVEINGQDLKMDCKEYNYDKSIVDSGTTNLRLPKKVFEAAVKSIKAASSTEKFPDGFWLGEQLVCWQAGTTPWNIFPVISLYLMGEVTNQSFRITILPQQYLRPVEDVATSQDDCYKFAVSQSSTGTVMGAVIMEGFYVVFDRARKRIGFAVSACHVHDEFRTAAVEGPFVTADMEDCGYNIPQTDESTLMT
# Description: The binding kinetics of YW412.8.31 was assessed. Briefly, binding affinities of anti-BACE1 IgGs were measured by surface plasmon resonance (SPR) using a BIAcore™-3000 instrument. YW412.8.31 anti-BACE1 human IgG was captured by mouse anti-human Fc antibody (GE Healthcare, cat# BR-1008-39) coated on CM5 biosensor chips to achieve approximately 100 response units (RU). For kinetics measurements, two-fold serial dilutions (0.98 nM to 125 nM) of human BACE1 ECD or murine BACE1 ECD (amino acids 1-457) was injected in PBT buffer (PBS with 0.05% Tween 20) at 25° C. with a flow rate of 30 μl/min. Association rates (kon) and dissociation rates (koff) were calculated using a simple one-to-one Langmuir binding model (BIAcore™ Evaluation Software version 3.2). The equilibrium dissociation constant (KD) was calculated as the ratio koff/kon.
# [1] = Antibody concentration in monkey serum and CSF; format: in vivo, Cynomolgus monkey; conditions: 30 mg/kg IV
# Description: Cynomolgus monkeys were dosed with control IgG or YW412.8.31 anti-BACE1 antibody (30 mg/kg) by IV delivery. Plasma and CSF were sampled up to 7 days prior to dosing to set mean baseline Aβ1-40 levels in each in individual animal, and then at various times after dosing. Total anti-BACE1 or control antibody concentrations in monkey serum and CSF samples were measured using monkey-adsorbed goat anti-human IgG polyclonal antibody (Bethyl, Montgomery, Tex.) as both coat and detection (FIG. 20). Free anti-BACE1 antibody concentrations in monkeys were determined using BACE1 ECD as coat and the monkey-adsorbed goat anti-human IgG antibody (Bethyl) for detection.
# BACE1 = BACE1 (Homo sapiens, UniProt P56817); experiment: HTRF BACE1 enzyme activity assay (long peptide Bi27); format: biochemical; conditions: IgG, long peptide substrate
# BACE1, sequence (P56817 22-457): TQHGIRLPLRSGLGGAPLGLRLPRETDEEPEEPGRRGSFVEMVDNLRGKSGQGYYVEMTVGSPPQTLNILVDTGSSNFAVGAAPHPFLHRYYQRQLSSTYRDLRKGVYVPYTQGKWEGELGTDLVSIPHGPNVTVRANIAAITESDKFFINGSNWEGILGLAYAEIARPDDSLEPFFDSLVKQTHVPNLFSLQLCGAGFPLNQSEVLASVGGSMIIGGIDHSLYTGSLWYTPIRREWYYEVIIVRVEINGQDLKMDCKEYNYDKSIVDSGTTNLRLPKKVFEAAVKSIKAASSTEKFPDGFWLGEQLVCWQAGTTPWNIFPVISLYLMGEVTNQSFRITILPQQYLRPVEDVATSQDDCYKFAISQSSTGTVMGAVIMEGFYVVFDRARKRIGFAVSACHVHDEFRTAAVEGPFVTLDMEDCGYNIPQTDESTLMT
# Description: The HTRF assay was performed as follows. […] The proteolytic reaction mixture was incubated at ambient temperature for 75 minutes and was quenched by the addition of 5 μL HTRF detection mixture containing 2 nM Streptavidin-D2 and 150 nM of 6E10 anti-amyloid beta antibody (Covance, Emoryville, Calif.) labeled with Europium cryptate in detection buffer (200 mM Tris pH 8.0, 20 mM EDTA, 0.1% BSA, and 0.8M KF). The final reaction mixture was incubated at ambient temperature for 60 minutes and the TR-FRET signal was measured using an EnVision Multilabel Plate Reader™ (Perkin-Elmer) at an excitation wavelength of 320 nm and emission wavelengths of 615 and 665 nm. Reactions lacking BACE1 enzyme (0 BACE) and reactions containing lacking anti-BACE1 antibodies (PBS (100% BACE1 Activity) were used as controls.
# Fab proteins of 6 clones were purified and subjected for HTRF enzyme activity assay, as described above.
# The affinity matured YW412.8.31 anti-BACE1 antibody was tested in a HTRF assay as described in Example 1. […] Additionally, reactions using a short FRET peptide (Rh-[…]-quencher (SEQ ID NO:54), Invitrogen) were also performed identically to the HTRF reactions. The resulting fluorogenic products from the control reactions were measured as above, but at an excitation wavelength of 545 nm and an emission wavelength of 585 nm. Obtained data were analyzed using GraphPad Prism 5™ (LaJolla, Calif.).
molecule,measurement,setting,value
"YW412.8.31: affinity matured form of YW412.8 anti-BACE1 antibody (antibody, V domains shown) VH: EVQLVESGGGLVQPGGSLRLSCAASGFTFLGYGIHWVRQAPGKGLEWVGWISPAGGSTDYADSVKGRFTISADTSKNTAYLQMNSLRAEDTAVYYCARGPFSPWVMDYWGQGTLVTVSS VL: DIQMTQSPSSLSASVGDRVTITCRASQDVSTAVAWYQQKPGKAPKLLIYSASFLYSGVPSRFSGSGSGTDFTLTISSLQPEDFATYYCQQFPTYLPTFGQGTKVEIK",binding to BACE2,BACE2,does not bind
same,KON,murine BACE1 ECD,1.01 × 10^5 M^−1S^−1 and 1.4 × 10^5 M^−1S^−1
same,Kd,murine BACE1 ECD,1.4 nM and 2.1 nM
same,concentration in CSF,[1],0.2-0.3 μg/ml and ~2 nM
same,peak serum antibody concentration,[1]; 15 minutes post administration,~800 µg/mL
same,serum antibody concentration,[1]; 7 days post-dose,232 µg/mL
same,maximal inhibition,BACE1,77%
